According to PMC4967961:

Key:
[1] = target: T1, HuRΔIII (ΔRRMIII) (UniProt Q15717 1-243); test: displacement from Ago2 miRNPs, HuR IP and qRT-PCR; 300 nM protein, 5 mM Mg2+, 30 C, 60 min; EMSA: 20 mM Tris-HCl pH 7.8, 150 mM KCl, 2 mM MgCl2, 0.1% Triton X-100, 0.5 mM DTT, heparin 5 mg/ml, BSA 1 mg/ml, 10% glycerol, on ice 15 min; 6% native PAGE, 0
[2] = target: T1, HuRΔIII (ΔRRMIII); test: EMSA; EMSA: 20 mM Tris-HCl pH 7.8, 150 mM KCl, 2 mM MgCl2, 0.1% Triton X-100, 0.5 mM DTT, heparin 5 mg/ml, BSA 1 mg/ml, 10% glycerol, on ice 15 min; 6% native PAGE, 0

T1 sequence (Q15717 1-243, stated change not applied): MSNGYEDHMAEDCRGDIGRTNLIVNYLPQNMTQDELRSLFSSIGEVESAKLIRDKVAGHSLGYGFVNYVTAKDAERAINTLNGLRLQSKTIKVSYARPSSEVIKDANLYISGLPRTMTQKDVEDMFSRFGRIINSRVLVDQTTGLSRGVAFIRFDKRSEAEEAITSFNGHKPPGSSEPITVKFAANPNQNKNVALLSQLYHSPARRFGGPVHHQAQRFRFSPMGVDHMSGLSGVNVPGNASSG

Binder | binding signal [1] | binding result [2]
UGGAGUGUGACAAUGGUGUUUG (ssRNA) [miR-122 from cell-expressed Ago2 miRNPs] | ~14 fold reduction vs full-length HuR | –
AUUAUUUAUUAUUUAUUUAUUAUUUAUUUAUUUA (ssRNA) [TNF-alpha 3'UTR ARE RNA] | – | binds
